In patent US20230049152A1 (Genentech, published 2023):
Changes are numbered by the printed parent chain.

T1: human ACKR2 (human, UniProt O00590 1-384)
T1 construct: whole, on cells; transiently expressed on HEK293 cells
T1 sequence (looked up): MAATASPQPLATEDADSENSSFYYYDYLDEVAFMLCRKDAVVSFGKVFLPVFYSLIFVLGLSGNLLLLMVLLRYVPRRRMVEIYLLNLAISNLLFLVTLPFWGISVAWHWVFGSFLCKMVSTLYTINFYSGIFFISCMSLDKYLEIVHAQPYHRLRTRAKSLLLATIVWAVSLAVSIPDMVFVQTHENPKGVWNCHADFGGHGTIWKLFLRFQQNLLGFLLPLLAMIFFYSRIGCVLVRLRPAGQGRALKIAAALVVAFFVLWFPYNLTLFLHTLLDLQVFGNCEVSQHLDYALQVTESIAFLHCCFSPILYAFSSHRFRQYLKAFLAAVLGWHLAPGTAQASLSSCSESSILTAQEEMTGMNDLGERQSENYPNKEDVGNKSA

T2: human ACKR4 (human, UniProt Q9NPB9 1-350)
T2 construct: whole, on cells; transiently expressed on HEK293 cells
T2 sequence (looked up): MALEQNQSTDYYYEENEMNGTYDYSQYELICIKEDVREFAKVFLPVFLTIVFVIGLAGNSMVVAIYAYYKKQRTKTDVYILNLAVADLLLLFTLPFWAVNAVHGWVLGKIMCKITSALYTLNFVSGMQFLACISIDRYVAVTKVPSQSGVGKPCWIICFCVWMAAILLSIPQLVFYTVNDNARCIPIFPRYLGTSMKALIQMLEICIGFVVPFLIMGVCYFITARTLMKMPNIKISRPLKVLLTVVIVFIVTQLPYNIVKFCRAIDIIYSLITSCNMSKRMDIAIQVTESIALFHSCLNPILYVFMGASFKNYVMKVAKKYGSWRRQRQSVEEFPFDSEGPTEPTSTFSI

B1: hu.Ab5.H1L1 (antibody, human IgG1, kappa)
heavy: not shown
light: DIQVTQSPSSLSASVGDRVTITCQASENIANALAWYQQKPGKPPKFLIYGASNLASGVPSRFSGSGSGTDFTFTISSLQPEDIATYYCQQAYYGNSFVEGTFGGGTKVEIKRTVAAPSVFIFPPSDEQLKSGTASVVCLLNNFYPREAKVQWKVDNALQSGNSQESVTEQDSKDSTYSLSSTLTLSKADYEKHKVYACEVTHQGLSSPVTKSFNRGEC
B2: hu.Ab5.H13L1 (antibody, human IgG1, kappa)
heavy: not shown
light: B1 light
notes: fucosylated human IgG1; also called Ab5 variant
B3: hu.Ab4.H1L1 (antibody, human IgG1, kappa)
heavy: not shown
light: DYQMTQSPSSLSASVGDRVTITCQASQSISSYLSWYQQKPGKRPKLLIYKASTLASGVPSRFSGSGSGTDFTLTISSLQPEDFATYYCQQGYTSSNIDNIFGGGTKVEIKRTVAAPSVFIFPPSDEQLKSGTASVVCLLNNFYPREAKVQWKVDNALQSGNSQESVTEQDSKDSTYSLSSTLTLSKADYEKHKVYACEVTHQGLSSPVTKSFNRGEC
notes: also called hu.Ab4.H1Ll
B4: hu.Ab4.H12L3 (antibody, human IgG1, kappa)
heavy: not shown
light: B3 light with R43A
notes: fucosylated human IgG1; also called huCCR8-Ab4.H12L3.hIgG1; Ab4 variant

Assays:
[1] = molecular target: T3, human CXCR4 (human, UniProt P61073 1-352); experiment: flow cytometry, HEK293 with N-term FLAG-tagged human CXCR4
T3 construct: whole, on cells; transiently expressed on HEK293 cells
T3 sequence (P61073 whole entry): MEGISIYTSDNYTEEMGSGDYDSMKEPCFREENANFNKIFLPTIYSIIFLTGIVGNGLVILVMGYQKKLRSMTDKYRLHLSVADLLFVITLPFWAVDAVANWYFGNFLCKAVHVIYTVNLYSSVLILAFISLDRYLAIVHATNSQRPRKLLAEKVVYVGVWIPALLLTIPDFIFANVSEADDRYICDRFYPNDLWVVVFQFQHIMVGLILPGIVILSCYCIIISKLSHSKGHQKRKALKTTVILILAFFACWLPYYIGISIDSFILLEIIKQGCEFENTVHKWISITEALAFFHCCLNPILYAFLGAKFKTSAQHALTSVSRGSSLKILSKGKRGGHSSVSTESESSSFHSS
Source text: FIGS. 4A-4F depicts the binding data of hu.Ab3.H1L1 (FIG. 4A), hu.Ab4.H1L1 (FIG. 4B), and hu.Ab5.H1L1 (FIG. 4C), as well as the commercial anti-CCR8 mAbs murine anti-human CCR8 mAb 433H (BD Biosciences) (FIG. 4D), and murine anti-human CCR8 mAb L263G8 (Biolegend) (FIG. 4E), and the humanized anti-human Yoshida anti-CCR8 mAb (FIG. 4F), to HEK293 cells that were transiently transfected with N-term FLAG-tagged plasmids encoding for human GPCRs (CCR2, CCR3, CCR4, CCR5, CCR8, CXCR4, ACKR2, and ACKR4), hCCR8 constructs, or with a mock construct using transIT X2 (reagent:DNA=3:1).
To confirm the selectivity to CCR8, the binding of hu.Ab3.H1L1, hu.Ab4.H1L1, and hu.Ab5.H1L1, as well as the Yoshida humanized anti-human CCR8, murine anti-human CCR8 mAb L263G8 (Biolegend, Commercial Ab) and murine anti-human CCR8 mAb 433H (BD Biosciences, Commercial Ab), were characterized by flow cytometry on HEK293 cells that were transiently transfected with plasmids encoding for FLAG-tagged other related human GPCRs (CCR2-5, CXCR4, ACKR2, and ACKR4). Cell surface expression of each GPCR was confirmed by staining with an anti-FLAG antibody control. […]

[2] = molecular target: T4, GST-FcgR3a.V158 (UniProt P08637 17-208, limits assumed); experiment: ELISA, GST-FcgR3a.V158 captured by anti-GST antibody
T4 construct: Captured by anti-GST antibody on ELISA plate; also called FcgR3a.V158 protein; Fcgamma RIIIa V158; not shown: GST tag
T4 sequence (P08637 17-208 F176V limits assumed): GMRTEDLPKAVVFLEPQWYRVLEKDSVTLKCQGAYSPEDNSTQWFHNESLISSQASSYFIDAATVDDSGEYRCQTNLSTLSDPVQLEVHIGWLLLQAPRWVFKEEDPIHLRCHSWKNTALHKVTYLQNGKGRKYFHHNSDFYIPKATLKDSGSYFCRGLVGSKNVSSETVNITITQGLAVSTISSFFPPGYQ
Method: The binding of fucosylated and afucosylated variants of hu.Ab5.H13L1 and hu.Ab4.H12L3 to both FcgR3a proteins by ELISA was studied. Briefly, an anti-GST antibody was coated on Nunc Maxisorp plates. GST-FcgR3a.V158 and GST-FcgR3a.F158 were captured at 500 ng/mL. Plates were then washed and then serially diluted anti-CCR8 antibodies starting at 100 ug/mL were incubated on the plate for 1 hour at room temperature. Plates were washed and bound antibody was detected by a HRP-conjugated anti-human IgG secondary antibody. Absorbance at 450 nm was measured by a plate reader. The data were fitted using a 4-parameter logistic curve in Softmax Pro.

[3] = molecular target: T5, human CCR5 (human, UniProt P51681 1-352); experiment: flow cytometry, HEK293 with N-term FLAG-tagged human CCR5, procedure of FIG. 4
T5 construct: whole, on cells; transiently expressed on HEK293 cells
T5 sequence (P51681 whole entry): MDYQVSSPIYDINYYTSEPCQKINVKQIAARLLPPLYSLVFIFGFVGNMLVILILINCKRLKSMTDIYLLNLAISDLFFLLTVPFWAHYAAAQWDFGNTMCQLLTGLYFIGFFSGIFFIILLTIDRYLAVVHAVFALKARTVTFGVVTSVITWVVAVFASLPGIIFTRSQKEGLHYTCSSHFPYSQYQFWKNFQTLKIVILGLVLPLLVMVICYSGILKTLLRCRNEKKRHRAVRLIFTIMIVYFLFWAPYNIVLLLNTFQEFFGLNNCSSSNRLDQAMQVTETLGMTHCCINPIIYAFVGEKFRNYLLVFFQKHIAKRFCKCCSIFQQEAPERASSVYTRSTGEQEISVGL
Source text: (§1) To confirm the selectivity to CCR8, the binding of hu.Ab3.H1L1, hu.Ab4.H1L1, and hu.Ab5.H1L1, as well as the Yoshida humanized anti-human CCR8, murine anti-human CCR8 mAb L263G8 (Biolegend, Commercial Ab) and murine anti-human CCR8 mAb 433H (BD Biosciences, Commercial Ab), were characterized by flow cytometry on HEK293 cells that were transiently transfected with plasmids encoding for FLAG-tagged other related human GPCRs (CCR2-5, CXCR4, ACKR2, and ACKR4). Cell surface expression of each GPCR was confirmed by staining with an anti-FLAG antibody control. In particular, HEK293 cells were transfected with N-term FLAG-tagged human CCR2, CCR3, CCR4, CCR5, CXCR4, ACKR2, ACKR4, hCCR8 constructs, or with a Mock construct using transIT X2 (reagent:DNA=3:1) for 24 hours, and surface stained with various anti-hCCR8 monoclonal antibodies at 5 ug/ml, or rabbit anti-Flag pAb (Sigma) followed by AF647-anti-hIgG or AF647-anti-RbIgG respectively. Antibodies hu.Ab4.H1L1, and hu.Ab5.H1L1, only stained the hCCR8-containing cells, confirming their specificity to hCCR8. […] Thus, the CCR8 selective hu.Ab4.H1L1 and hu.Ab5.H1L1 antibodies with the best ADCC activities were carried forward.
(§2) To reconfirm that the Ab4 and Ab5 variants remained selective to CCR8 compared to the corresponding HIL1 variants, binding was analyzed by flow cytometry following the procedure as described for FIG. 4A and FIG. 4B. […]

[4] = molecular target: T1, human ACKR2; experiment: flow cytometry, HEK293 with N-term FLAG-tagged human ACKR2, procedure of FIG. 4
Source text: as §1, §2

[5] = molecular target: T6, human CCR2 (human, UniProt P41597 1-374); experiment: flow cytometry, HEK293 with N-term FLAG-tagged human CCR2, procedure of FIG. 4
T6 construct: whole, on cells; transiently expressed on HEK293 cells
T6 sequence (P41597 whole entry): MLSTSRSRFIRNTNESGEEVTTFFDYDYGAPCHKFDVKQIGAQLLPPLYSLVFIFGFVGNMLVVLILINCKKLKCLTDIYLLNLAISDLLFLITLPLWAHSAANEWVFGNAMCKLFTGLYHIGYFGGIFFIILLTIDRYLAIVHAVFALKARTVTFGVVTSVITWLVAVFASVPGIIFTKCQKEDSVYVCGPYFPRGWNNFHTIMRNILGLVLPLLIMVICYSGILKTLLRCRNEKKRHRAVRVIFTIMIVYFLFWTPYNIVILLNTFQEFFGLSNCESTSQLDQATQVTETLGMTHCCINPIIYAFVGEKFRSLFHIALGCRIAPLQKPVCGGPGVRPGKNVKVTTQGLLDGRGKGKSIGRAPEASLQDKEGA
Source text: as §1, §2

[6] = molecular target: T2, human ACKR4; experiment: flow cytometry, HEK293 with N-term FLAG-tagged human ACKR4, procedure of FIG. 4
Source text: as §1, §2

| Binder | binding result [1] | EC50 [2] | binding result [3] | binding result [4] | binding result [5] | binding result [6] |
| --- | --- | --- | --- | --- | --- | --- |
| B1 | no binding (tested: 5 ug/ml) |  |  |  |  |  |
| B2 |  | 0.39 µg/mL | no binding (tested: 5 ug/ml) | no binding (tested: 5 ug/ml) | no binding (tested: 5 ug/ml) | no binding (tested: 5 ug/ml) |
| B3 | no binding (tested: 5 ug/ml) |  |  |  |  |  |
| B4 |  | 0.388 µg/mL | no binding (tested: 5 ug/ml) | no binding (tested: 5 ug/ml) | no binding (tested: 5 ug/ml) | no binding (tested: 5 ug/ml) |
